Columns and labels:
HeLa Kyoto [1] = assay: solubility in G1/S (NP-40 vs SDS abundance) (log2 ratio); higher = more soluble; conditions: cell cycle stage: G1/S
HeLa Kyoto [2] = assay: solubility change mitosis vs G1/S (difference of NP-40 vs SDS log2 ratios) (log2 ratio difference); higher = more soluble in mitosis
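Throughout, for solubility change mitosis vs G1/S (difference of NP-40 vs SDS log2 ratios): synchronized HeLa Kyoto cells (double thymidine block for G1/S, nocodazole release for mitosis), protein amounts in NP-40 versus SDS lysates quantified by mass spectrometry, three biological replicates.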
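Throughout, for solubility in G1/S (NP-40 vs SDS abundance): HeLa Kyoto cells arrested at G1/S by double thymidine block, proteins quantified by TMT10plex mass spectrometry in mild NP-40 versus SDS extracts, three biological replicates.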

Sequence | solubility in G1/S (log2) (HeLa Kyoto [1]) | solubility change mitosis (log2) (HeLa Kyoto [2])
MATPRGRTKKKASFDHSPDSLPLRSSGRQAKKKATETTDEDEDGGSEKKYRKCEKAGCTATCPVCFASASERCAKNGYTSRWYHLSCGEHFCNECFDHYYRSHKDGYDKYTTWKKIWTSNGKTEPSPKAFMADQQLPYWVQCTKPECRKWRQLTKEIQLTPQIAKTYRCGMKPNTAIKPETSDHCSLPEDLRVLEVSNHWWYSMLILPPLLKDSVAAPLLSAYYPDCVGMSPSCTSTNRAAATGNASPGKLEHSKAALSVHVPGMNRYFQPFYQPNECGKALCVRPDVMELDELYEFPEYSRDPTMYLALRNLILALWYTNCKEALTPQKCIPHIIVRGLVRIRCVQEVERILYFMTRKGLINTGVLSVGADQYLLPKDYHNKSVIIIGAGPAGLAAARQLHNFGIKVTVLEAKDRIGGRVWDDKSFKGVTVGRGAQIVNGCINNPVALMCEQLGISMHKFGERCDLIQEGGRITDPTIDKRMDFHFNALLDVVSEWRKDKTQLQDVPLGEKIEEIYKAFIKESGIQFSELEGQVLQFHLSNLEYACGSNLHQVSARSWDHNEFFAQFAGDHTLLTPGYSVIIEKLAEGLDIQLKSPVQCIDYSGDEVQVTTTDGTGYSAQKVLVTVPLALLQKGAIQFNPPLSEKKMKAINSLGAGIIEKIALQFPYRFWDSKVQGADFFGHVPPSASKRGLFAVFYDMDPQKKHSVLMSVIAGEAVASVRTLDDKQVLQQCMATLRELFKEQEVPDPTKYFVTRWSTDPWIQMAYSFVKTGGSGEAYDIIAEDIQGTVFFAGEATNRHFPQTVTGAYLSGVREASKIAAF [KDM1B] | -0.371 | 0.0563
MATVGAPRHFCRCACFCTDNLYVARYGLHVRFRGEQQLRRDYGPILRSRGCVSAKDFQQLLAELEQEVERRQRLGQESAARKALIASSYHPARPEVYDSLQDAALAPEFLAVTEYSVSPDADLKGLLQRLETVSEEKRIYRVPVFTAPFCQALLEELEHFEQSDMPKGRPNTMNNYGVLLHELGLDEPLMTPLRERFLQPLMALLYPDCGGGRLDSHRAFVVKYAPGQDLELGCHYDNAELTLNVALGKVFTGGALYFGGLFQAPTALTEPLEVEHVVGQGVLHRGGQLHGARPLGTGERWNLVVWLRASAVRNSLCPMCCREPDLVDDEGFGDGFTREEPATVDVCALT [OGFOD2] | 0.182 | 0.112
MAVLGVQLVVTLLTATLMHRLAPHCSFARWLLCNGSLFRYKHPSEEELRALAGKPRPRGRKERWANGLSEEKPLSVPRDAPFQLETCPLTTVDALVLRFFLEYQWFVDFAVYSGGVYLFTEAYYYMLGPAKETNIAVFWCLLTVTFSIKMFLTVTRLYFSAEEGGERSVCLTFAFLFLLLAMLVQVVREETLELGLEPGLASMTQNLEPLLKKQGWDWALPVAKLAIRVGLAVVGSVLGAFLTFPGLRLAQTHRDALTMSEDRPMLQFLLHTSFLSPLFILWLWTKPIARDFLHQPPFGETRFSLLSDSAFDSGRLWLLVVLCLLRLAVTRPHLQAYLCLAKARVEQLRREAGRIEAREIQQRVVRVYCYVTVVSLQYLTPLILTLNCTLLLKTLGGYSWGLGPAPLLSPDPSSASAAPIGSGEDEVQQTAARIAGALGGLLTPLFLRGVLAYLIWWTAACQLLASLFGLYFHQHLAGS [TMEM161A] | -0.184 | -0.0501
MAVTEASLLRQCPLLLPQNRSKTVYEGFISAQGRDFHLRIVLPEDLQLKNARLLCSWQLRTILSGYHRIVQQRMQHSPDLMSFMMELKMLLEVALKNRQELYALPPPPQFYSSLIEEIGTLGWDKLVYADTCFSTIKLKAEDASGREHLITLKLKAKYPAESPDYFVDFPVPFCASWTPQSSLISIYSQFLAAIESLKAFWDVMDEIDEKTWVLEPEKPPRSATARRIALGNNVSINIEVDPRHPTMLPECFFLGADHVVKPLGIKLSRNIHLWDPENSVLQNLKDVLEIDFPARAILEKSDFTMDCGICYAYQLDGTIPDQVCDNSQCGQPFHQICLYEWLRGLLTSRQSFNIIFGECPYCSKPITLKMSGRKH [FANCL] | 0.184 | 0.0266
MCCEKWSRVAEMFLFIEEREDCKILCLCSRAFVEDRKLYNLGLKGYYIRDSGNNSGDQATEEEEGGYSCGTAESHDSKGIGLDESELDSEAELMRSMGLPLQFGRITAHKDFEVSMNTRNKVKIKKKKHQKKYLDEIVQESWRKEYEEDDILASDDPSSIEQYENTRTYELQSKKDTETENPPVENTLSPKLEITEKWEKYWNEYGGGLLWQSWQEKHPGQALSSEPWNFPDTKEEWEQHYSQLYWYYLEQFQYWEAQGWTFDASQSCDTDTYTSKTEADDKNDEKCMKVDLVSFPSSPIMVDNDSSGTSDKDHSEILDGISNIKLNSEEVTQSQLDSCTSHDGHQQLSEVSSKRECPASGQSEPRNGGTNEESNSSGNTNTDPPAEDSQKSSGANTSKDRPHASGTDGDESEEDPPEHKPSKLKRSHELDIDENPASDFDDSGSLLGFKYGSGQKYGGIPNFSHRQVRYLEKNVKLKSKYLDMRRQIKMKNKHIFFTKESEKPFFKKSKILSKVEKFLTWVNKPMDEEASQESSSHDNVHDASTSSDSEEQDMSVKKGDDLLETNNPEPEKCQSVSSAGELETENYERDSLLATVPDEQDCVTQEVPDSRQAETEAEVKKKKNKKKNKKVNGLPPEIAAVPELAKYWAQRYRLFSRFDDGIKLDREGWFSVTPEKIAEHIAGRVSQSFKCDVVVDAFCGVGGNTIQFALTGMRVIAIDIDPVKIALARNNAEVYGIADKIEFICGDFLLLASFLKADVVFLSPPWGGPDYATAETFDIRTMMSPDGFEIFRLSKKITNNIVYFLPRNADIDQVASLAGPGGQVEIEQNFLNNKLKTITAYFGDLIRRPASET [TGS1] | 0.102 | 0.247
MDDIADRMRMDAGEVTLVNHNSVFKTHLLPQTGFPEDQLSLSDQQILSSRQGHLDRSFTCSTRSAAYNPSYYSDNPSSDSFLGSGDLRTFGQSANGQWRNSTPSSSSSLQKSRNSRSLYLETRKTSSGLSNSFAGKSNHHCHVSAYEKSFPIKPVPSPSWSGSCRRSLLSPKKTQRRHVSTAEETVQEEEREIYRQLLQMVTGKQFTIAKPTTHFPLHLSRCLSSSKNTLKDSLFKNGNSCASQIIGSDTSSSGSASILTNQEQLSHSVYSLSSYTPDVAFGSKDSGTLHHPHHHHSVPHQPDNLAASNTQSEGSDSVILLKVKDSQTPTPSSTFFQAELWIKELTSVYDSRARERLRQIEEQKALALQLQNQRLQEREHSVHDSVELHLRVPLEKEIPVTVVQETQKKGHKLTDSEDEFPEITEEMEKEIKNVFRNGNQDEVLSEAFRLTITRKDIQTLNHLNWLNDEIINFYMNMLMERSKEKGLPSVHAFNTFFFTKLKTAGYQAVKRWTKKVDVFSVDILLVPIHLGVHWCLAVVDFRKKNITYYDSMGGINNEACRILLQYLKQESIDKKRKEFDTNGWQLFSKKSQEIPQQMNGSDCGMFACKYADCITKDRPINFTQQHMPYFRKRMVWEILHRKLL [SENP1] | -0.531 | 0.402
MDEDEFELQPQEPNSFFDGIGADATHMDGDQIVVEIQEAVFVSNIVDSDITVHNFVPDDPDSVVIQDVVEDVVIEEDVQCSDILEEADVSENVIIPEQVLDSDVTEEVSLPHCTVPDDVLASDITSTSMSMPEHVLTSESMHVCDIGHVEHMVHDSVVEAEIITDPLTSDIVSEEVLVADCAPEAVIDASGISVDQQDNDKASCEDYLMISLDDAGKIEHDGSTGVTIDAESEMDPCKVDSTCPEVIKVYIFKADPGEDDLGGTVDIVESEPENDHGVELLDQNSSIRVPREKMVYMTVNDSQQEDEDLNVAEIADEVYMEVIVGEEDAAVAAAAAAVHEQQIDEDEMKTFVPIAWAAAYGNNSDGIENRNGTASALLHIDESAGLGRLAKQKPKKKRRPDSRQYQTAIIIGPDGHPLTVYPCMICGKKFKSRGFLKRHMKNHPEHLAKKKYHCTDCDYTTNKKISLHNHLESHKLTSKAEKAIECDECGKHFSHAGALFTHKMVHKEKGANKMHKCKFCEYETAEQGLLNRHLLAVHSKNFPHICVECGKGFRHPSELRKHMRIHTGEKPYQCQYCEYRSADSSNLKTHIKTKHSKEMPFKCDICLLTFSDTKEVQQHTLVHQESKTHQCLHCDHKSSNSSDLKRHVISVHTKDYPHKCEMCEKGFHRPSELKKHVAVHKGKKMHQCRHCDFKIADPFVLSRHILSVHTKDLPFRCKRCRKGFRQQNELKKHMKTHSGRKVYQCEYCEYSTTDASGFKRHVISIHTKDYPHRCEYCKKGFRRPSEKNQHIMRHHKEVGLP [ZFY] | -0.668 | 0.257
MDEQPRLMHSHAGVGMAGHPGLSQHLQDGAGGTEGEGGRKQDIGDILQQIMTITDQSLDEAQARKHALNCHRMKPALFNVLCEIKEKTVLSIRGAQEEEPTDPQLMRLDNMLLAEGVAGPEKGGGSAAAAAAAAASGGAGSDNSVEHSDYRAKLSQIRQIYHTELEKYEQACNEFTTHVMNLLREQSRTRPISPKEIERMVSIIHRKFSSIQMQLKQSTCEAVMILRSRFLDARRKRRNFNKQATEILNEYFYSHLSNPYPSEEAKEELAKKCGITVSQVSNWFGNKRIRYKKNIGKFQEEANIYAAKTAVTATNVSAHGSQANSPSTPNSAGSSSSFNMSNSGDLFMSVQSLNGDSYQGAQVGANVQSQVDTLRHVISQTGGYSDGLAASQMYSPQGISANGGWQDATTPSSVTSPTEGPGSVHSDTSN [PBX1] | 0.177 | 0.0731
MDGTEGSAGQPGPAERSHRSSVSSVGARAADVLVYLADDTVVPLAVENLPSLSAHELHRAVREVLQLPDIALDVFALWLVSPLLEVQLKPKHQPYKLGRQWPELLLRFTSAPDDDVAMDEPFLQFRRNVFFPKRRELQIHDEEVLRLLYEEAKGNVLAARYPCDVEDCEALGALVCRVQLGPYQPGRPAACDLREKLDSFLPAHLCKRGQSLFAALRGRGARAGPGEQGLLNAYRQVQEVSSDGGCEAALGTHYRAYLLKCHELPFYGCAFFHGEVDKPAQGFLHRGGRKPVSVAISLEGVHVIDSREKHVLLGLRFQELSWDHTSPEEEEPILWLEFDGDSEGTPVNKLLKIYSKQAELMSSLIEYCIELSQAAEPAGPQDSATGSPSDPSSSLAPVQRPKLRRQGSVVSSRIQHLSTIDYVEDGKGIRRVKPKRTTSFFSRQLSLGQGSYTVVQPGDSLEQG [FRMD8] | 0.248 | -0.0705
MDILKSEILRKRQLVEDRNLLVENKKYFKRSELAKKEEEAYFERCGYKIQPKEEDQKPLTSSNPVLELELAEEKLPMTLSRQEVIRRLRERGEPIRLFGETDYDAFQRLRKIEILTPEVNKGLRNDLKAALDKIDQQYLNEIVGGQEPGEEDTQNDLKVHEENTTIEELEALGESLGKGDDHKDMDIITKFLKFLLGVWAKELNAREDYVKRSVQGKLNSATQKQTESYLRPLFRKLRKRNLPADIKESITDIIKFMLQREYVKANDAYLQMAIGNAPWPIGVTMVGIHARTGREKIFSKHVAHVLNDETQRKYIQGLKRLMTICQKHFPTDPSKCVEYNAL [PRPF18] | 0.178 | 0.09
